Target: macrophage scavenger receptors on transfected 293 cells (human macrophage scavenger receptor type I or type II; the filing does not say which)
Assay: radioligand binding/uptake on transfected HEK 293 cells; about 5 µg/ml, 5 hours at 37° C.

[125I]-acetylated LDL
binding/uptake (µg/mg protein): 1.75
